Series [1] deals with T1, human cholecystokinin-1 receptor (human, UniProt P32238 1-428).
T1 sequence (looked up): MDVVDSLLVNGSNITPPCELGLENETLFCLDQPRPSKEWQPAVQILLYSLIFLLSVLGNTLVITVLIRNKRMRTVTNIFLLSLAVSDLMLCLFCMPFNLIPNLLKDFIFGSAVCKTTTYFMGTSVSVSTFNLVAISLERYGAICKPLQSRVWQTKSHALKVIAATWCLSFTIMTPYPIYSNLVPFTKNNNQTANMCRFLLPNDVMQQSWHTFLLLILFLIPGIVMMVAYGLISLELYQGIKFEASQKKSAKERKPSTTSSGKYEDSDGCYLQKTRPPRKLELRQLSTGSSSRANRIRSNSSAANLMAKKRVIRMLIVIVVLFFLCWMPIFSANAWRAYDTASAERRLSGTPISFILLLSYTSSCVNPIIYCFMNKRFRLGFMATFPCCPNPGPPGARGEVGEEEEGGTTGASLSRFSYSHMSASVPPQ
Description: cell-based or functional assay.

Series [2] concerns the target T2, human cholecystokinin-2 receptor (human, UniProt P32239 1-447).
T2 sequence (looked up): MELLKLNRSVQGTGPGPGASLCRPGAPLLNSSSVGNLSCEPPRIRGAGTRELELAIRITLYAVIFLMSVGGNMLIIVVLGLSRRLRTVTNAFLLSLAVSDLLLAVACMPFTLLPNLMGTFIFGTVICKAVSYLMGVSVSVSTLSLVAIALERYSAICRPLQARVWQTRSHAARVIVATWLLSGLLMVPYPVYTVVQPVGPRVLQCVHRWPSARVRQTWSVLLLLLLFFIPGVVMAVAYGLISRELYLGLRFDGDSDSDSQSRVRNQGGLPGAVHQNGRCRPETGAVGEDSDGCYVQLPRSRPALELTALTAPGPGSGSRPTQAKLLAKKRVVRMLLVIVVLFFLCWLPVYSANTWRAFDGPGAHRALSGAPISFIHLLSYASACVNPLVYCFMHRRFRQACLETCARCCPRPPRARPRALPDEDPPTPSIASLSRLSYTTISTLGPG
Description: cell-based or functional assay.

The target in series [3] is T1, human cholecystokinin-1 receptor. Description: ratio of SPA IC50s, reference CCK-2R.
Series [4] is described as follows: Plasma exposure after the last dose in DIO mini-pigs. It counts as in vivo, Göttingen mini-pigs. To be noted: combination group, liraglutide […]. On the procedure: The CCK derivative was dissolved in the following buffer: 8 mM phosphate, 184 mM propylene glycol, 58 mM phenol, pH 7.4 concentrations ranging from 2000-10000 nmol/mL corresponding to dose volumes ranging from 0.00075-0.001 mL/kg. Liraglutide was dissolved in 8 mM phosphate, 184 mM propylenglycol, 58 mM phenol, pH 8.15 (1600 nmol/mL), dose volume was 0.001 mL/kg and this formulation also served as a vehicle for all 3 treatment groups. Animals were dosed subcutaneously once daily with vehicle, CCK derivative, liraglutide, or liraglutide in combination with the CCK derivative (given as two separate injections in each side of the neck). After the last dose blood samples were obtained in EDTA coated tubes at selected time points for up to 480 hours after dosing. Blood was sampled through central-venous catheters implanted under general anaesthesia after 11 weeks of treatment.
The resulting plasma was pipetted into Micronic tubes on dry ice, and kept at −20° C. until analysed for plasma exposure of liraglutide and the CCK derivative. Plasma content of the CCK derivative was measured using LC-MS method II, as described in Example 93. Plasma content of liraglutide was measured using LOCI (Luminescence Oxygen Channeling Immunoasssay). LOCI is generally described for the determination of insulin by Poulsen and Jensen in Journal of Biomolecular Screening 2007, vol. 12, p. 240-247. The donor beads were coated with streptavidin, while acceptor beads were conjugated with a monoclonal antibody recognising a C-terminal epitope of the peptide. Another monoclonal antibody, specific for the N-terminus, was biotinylated. The three reactants were combined with the analyte and formed a two-sited immuno-complex. Illumination of the complex released singlet oxygen atoms from the donor beads, which were channelled into the acceptor beads and triggered chemiluminescence which was measured in an Envision plate reader. The amount of light was proportional to the concentration of the compound.

In series [1], “Asp-sTyr-Nle-Gly-Trp-Nle-DMeAsp-1Nal-amide (peptide)” returned a CCK-1R selectivity (EC50 (CCK-2R)/EC50 (CCK-1R)) of 2100 and an EC50 (CCK-1R) of 0.14 nM. In series [2], the EC50 (CCK-2R) was 290 nM. Besides, the CCK-1R binding selectivity (IC50 (CCK-2R)/IC50 (CCK-1R)) in series [3] is 84000.

Turning to `CCCCCCCCCCCCCCCC(=O)N[C@@H](CCC(=O)NCCCC[C@H](NC(=O)[C@H](C)NC(=O)[C@H](C)NC(=O)[C@H](CCC(N)=O)NC(=O)CNC(=O)[C@H](CCC(=O)O)NC(=O)[C@H](CC(C)C)NC(=O)[C@H](Cc1ccc(O)cc1)NC(=O)[C@H](CO)NC(=O)[C@H](CO)NC(=O)[C@@H](NC(=O)[C@H](CC(=O)O)NC(=O)[C@H](CO)NC(=O)[C@@H](NC(=O)[C@H](Cc1ccccc1)NC(=O)[C@@H](NC(=O)CNC(=O)[C@H](CCC(=O)O)NC(=O)[C@H](C)NC(=O)[C@@H](N)Cc1cnc[nH]1)[C@@H](C)O)[C@@H](C)O)C(C)C)C(=O)N[C@@H](CCC(=O)O)C(=O)N[C@@H](Cc1ccccc1)C(=O)N[C@H](C(=O)N[C@@H](C)C(=O)N[C@@H](Cc1c[nH]c2ccccc12)C(=O)N[C@@H](CC(C)C)C(=O)N[C@H](C(=O)N[C@@H](CCCNC(=N)N)C(=O)NCC(=O)N[C@@H](CCCNC(=N)N)C(=O)NCC(=O)O)C(C)C)[C@@H](C)CC)C(=O)O` [Liraglutide, reference compound], the “AUCexposure (0-24 h) after last dose, Liraglutide” value in series [4] was “Liraglutide: 399872 pM*h”.

(Values after patent US20170008928A1, “NOVEL PEPTIDES AND PEPTIDE DERIVATIVES AND USES THEREOF” (Novo Nordisk A/S, priority 2015, published 2017).)
